Laboratory results published in patent publication US20200385487A1 (PURDUE PHARMA L P, published 2020).

How the values were obtained:
[1] = biological target: T1, Recombinant Human Coagulation Factor III (tissue factor), R&D Systems (human, UniProt P13726 33-251); test: ELISA: 100 ng/well Recombinant Human Coagulation Factor III coated on plate, antibody titrated 1000 to 0.97 ng/ml, goat anti-human Fc-HRP, TMB, OD at 450 nm
T1 construct: Bought reagent
Protocol: The binding of humanized variants of TF antibody B278, including B278-LC7HC4, LC7HC5, LC7HC6, LC8HC4, LC8HC5, and LC8HC6 variants, to recombinant human coagulation factor III (tissue factor) was assessed by ELISA analysis. The chimeric antibody B278-LC0HC0 was used as a control. In brief, 100 ng/well of Recombinant Human Coagulation Factor III (R&D Systems, UK) was immobilized onto 96 well Maxisorp plates in coating buffer (0.5 mM NaHCO₃ brought to pH 9.5 by the addition of 0.5 mM Na₂CO₃) overnight at 4° C. Coating buffer was removed and the plates were washed once in PBS Tween (PBS-T) (0.05% (v/v) Tween 20). 200 μl per well of 3.0% (w/v) semi skim milk in PBS was added and the plates were agitated for 2 hours at room temperature. Plates were washed three times with PBS-T.
Purified humanized variants of the TF antibody B278 (LC7HC4; LC7HC5; LC7HC6; LC8HC4; LC8HC5; LC8HC6) were serially diluted from 1,000 ng/ml to 0.97 ng/ml in incubation buffer (PBS, 1% (w/v) BSA), and 100 μl added per well.
Following agitation for two hours at room temperature, the plate was washed three times with PBS-T. 100 μl/well of goat anti-human HRP (Fc specific) (Sigma, UK) (1:60,000 PBS) was added and plates incubated for one hour with agitation at room temperature. The plates were washed three times with PBS-T and once in PBS. 100 μl/well of 3,3′,5,5′-Tetramethylbenzidine (TMB) substrate solution was added and incubated at 37° C. for 10 minutes. 50 μl of 1M HCl were added per well and the plates immediately read at 450 nm on a Tecan Sunrise plate reader.

[2] = biological target: T2, recombinant soluble human tissue factor (hTF) (human, UniProt P13726 33-251); test: SPR (Biacore X), soluble hTF immobilized on CM5 chip, antibody injected; global fit Langmuir 1:1
T2 construct: also called soluble hTF
Protocol: Binding properties of anti-hTF MAbs were evaluated using a Biacore X (Biacore Inc., Uppsala, Sweden). Briefly, a CM5 Biacore biosensor chip was docked into the instrument and activated with 55 μL of 1:1 NHS/EDC reagent (Biacore Inc.) at room temperature. The recombinant soluble hTF and BSA (10 μg/mL in 0.05 M acetate buffer, pH 4.5) were immobilized on the activated chip in flow cells 1 and 2, respectively. Immobilization was carried out at a flow rate of 5 μL/min until a resonance response of 1000-2000 RU was achieved. The chip was then blocked by injection of 55 μL of ethanolamine-HCl, pH 8.5, followed by five washes with 50 mM NaOH, 1 M NaCl.
To measure the binding of anti-hTF MAbs to the soluble hTF immobilized to the chip, 30 μL of anti-hTF MAbs at varying concentrations in Biacore running buffer (HBS-EP, Biacore Inc.) were injected over the sensor surface at a flow rate of 5 μL/min. Following completion of the injection phase, dissociation was monitored in BIAcore running buffer at the same flow rate for 360 sec. The surface was regenerated between injections using 30 μL of 50 mM NaOH-1 M NaCl. Individual sensorgrams were analyzed using […] software. Results for the Biacore/SPR binding analyses are shown in FIGS. 11A and 11B and Table 7.

B1: chimeric antibody B278-LC0HC0 (antibody, V domains shown)
VH: EVQLQQSGAELMKPGASVKISCKATGYTFSSYWIEWVKQRPGHGLEWIGEILPGSASTKYNEKFKGKATFTADTSSNTAYMQLSSLTSEDSAVYYCARDYYYGSSYGFAYWGQGTLVTVSS
VL: QAVVTQESALTTSPGETVTLTCRSSTGAVTTSNYANWVQEKPDHLFTGLIGGTNNRGPGVPARFSGSLIGDKAALTITGAQTEDEAVYFCALWYSNHWVFGGGTKLTVLG
notes: also called Ab LC0HC0 (chimeric B278); chimeric B278 control antibody
- EC50 (read off the curve) [1]: ~0.04 µg/mL
- Kd [2]: 24.9 nM
- koff [2]: 0.0011 s⁻¹
- kon [2]: 43000 M⁻¹ s⁻¹

B2: humanized tissue factor antibody B278-LC7HC6 variant (antibody, human IgG1, lambda, V domains shown)
VH: EVQLQQSGAEVMKPGASVKISCKASGYTFSSYWIEWVKQAPGQGLEWIGEILPGSASTKYNEKFKGRVTFTADTSTNTAYMELSSLRSEDTAVYYCARDYYYGSSYGFAYWGQGTLVTVSS
VL: QAVVTQEPSLTVSPGGTVTLTCRSSTGAVTTSNYANWVQQKPGQLPKGLISGTNNRGPWTTARFSGSILGDKAVLTLWGAHTEDEAVYYCALWYSNHWVFGGGTKLTVLG
notes: Full-length humanized antibody; Expressed transiently in CHO cells; also called Ab LC7HC6; PS-F09-2016-012
- Kd [2]: 25.3 nM
- koff [2]: 0.0007 s⁻¹
- kon [2]: 28000 M⁻¹ s⁻¹

B3: LC7HC5 (antibody, V domains shown)
VH: QVQLQESGAEVKKPGASVKVSCKASGYTFSSYWIEWVRQAPGQGLEWMGEILPGSASTKYNEKFKGRVTMTADTSTNTVYMELSSLRSEDTAVYYCARDYYYGSSYGFAYWGQGTLVTVSS
VL: QAVVTQEPSLTVSPGGTVTLTCRSSTGAVTTSNYANWVQQKPGQLPKGLISGTNNRGPWTTARFSGSILGDKAVLTLWGAHTEDEAVYYCALWYSNHWVFGGGTKLTVLG
notes: Humanized B278 variant, expressed transiently in CHO cells; also called B278-LC7HC5; B278-LC7HC5 variant
- EC50 (read off the curve) [1]: ~0.05 µg/mL

B4: LC8HC5 (antibody, V domains shown)
VH: QVQLQESGAEVKKPGASVKVSCKASGYTFSSYWIEWVRQAPGQGLEWMGEILPGSASTKYNEKFKGRVTMTADTSTNTVYMELSSLRSEDTAVYYCARDYYYGSSYGFAYWGQGTLVTVSS
VL: QSALIQPPSVSGSPGQSVTISCRSSTGAVTTSNYANWVQQHPGTVPKPMIYGTNNRGPGVPDRFSGSKSGNTASMTISGLQAEDEADYFCALWYSNHWVFGGGTKLTVLG
notes: Humanized B278 variant, expressed transiently in CHO cells; also called B278-LC8HC5; B278-LC8HC5 variant
- binding result [1]: no binding (tested: 1000 ng/ml)

B5: LC8HC4 (antibody, V domains shown)
VH: QVQLQESGAEVKKPGASVKVSCKASGYTFSSYWIEWVRQAPGQGLEWMGEILPGSASTKYNEKFKGRVTMTRDTSTSTVYMELSSLRSEDTAVYYCARDYYYGSSYGFAYWGQGTLVTVSS
VL: QSALIQPPSVSGSPGQSVTISCRSSTGAVTTSNYANWVQQHPGTVPKPMIYGTNNRGPGVPDRFSGSKSGNTASMTISGLQAEDEADYFCALWYSNHWVFGGGTKLTVLG
notes: Humanized B278 variant, expressed transiently in CHO cells; also called B278-LC8HC4; B278-LC8HC4 variant
- binding result [1]: no binding (tested: 1000 ng/ml)

B6: LC8HC6 (antibody, V domains shown)
VH: EVQLQQSGAEVMKPGASVKISCKASGYTFSSYWIEWVKQAPGQGLEWIGEILPGSASTKYNEKFKGRVTFTADTSTNTAYMELSSLRSEDTAVYYCARDYYYGSSYGFAYWGQGTLVTVSS
VL: QSALIQPPSVSGSPGQSVTISCRSSTGAVTTSNYANWVQQHPGTVPKPMIYGTNNRGPGVPDRFSGSKSGNTASMTISGLQAEDEADYFCALWYSNHWVFGGGTKLTVLG
notes: Humanized B278 variant, expressed transiently in CHO cells; also called B278-LC8HC6; B278-LC8HC6 variant
- binding result [1]: no binding (tested: 1000 ng/ml)

B7: LC7HC4 (antibody, V domains shown)
VH: QVQLQESGAEVKKPGASVKVSCKASGYTFSSYWIEWVRQAPGQGLEWMGEILPGSASTKYNEKFKGRVTMTRDTSTSTVYMELSSLRSEDTAVYYCARDYYYGSSYGFAYWGQGTLVTVSS
VL: QAVVTQEPSLTVSPGGTVTLTCRSSTGAVTTSNYANWVQQKPGQLPKGLISGTNNRGPWTTARFSGSILGDKAVLTLWGAHTEDEAVYYCALWYSNHWVFGGGTKLTVLG
notes: Humanized B278 variant, expressed transiently in CHO cells; also called B278-LC7HC4; B278-LC7HC4 variant
- EC50 (read off the curve) [1]: ~0.06 µg/mL
